Measured values published in patent US20030021779A1.

Target: C-antigen (human)
Assay: cell-fixed ELISA, tumor cell lines

B1: H11-scFv (scFv)
scFv: DIVLTQSPGTLSLSPGERATLSCRASQSVSSSYLAWYQQKPGQAPRLLIYGASTRATGMPDRFSGSGSGTDFTLTISRLEPEDFAVYYCQQYGSSPQTPQITFGGGTKVEIKRTVAAPSVSGGGGSGGGGSGGGGSQVQLVESGGGVVQPGRSLRLSCAASGFPFRSFAMHWVRQALGKGLEWVAVISYDGSTKYYADSVKGRFTISRDTSKNTVYLKMNSLRTEDTAVYYCARDQSLLGDYDHYYGLDVWGKGTTVTVSSGSEQKLISEEDLNHHHHH
  fold greater affinity than the control (BGA scFv): 8 to 50 fold
